Two molecules from patent US6723833 can be followed below.

Like-named read-outs stand apart in the source and are kept apart here. A value given as a limit tells only on which side of the number the result lay.

Assay [1] concerns the target human IgE bound to FcεRI (IgE-loaded FcεRI α-chain on CHO 3D10 cells) (human) (UniProt P01854). Kind of assay: FACS on IgE-loaded CHO 3D10 cells (FIG. 4).
For assay [2] the target is unchanged. Kind of assay: FACS on IgE-loaded CHO 3D10 cells (FIG. 4); isotype control.
The target is the same in assay [3]. As to the kind of experiment: cell-based or functional assay.
The target in assay [4] is membrane IgE on U266B1 cells (human) (UniProt P01854). As to the kind of experiment: FACS on U266B1 cells (membrane IgE+).
membrane IgE on U266B1 cells (human), sequence (P01854 whole entry, one chain of several): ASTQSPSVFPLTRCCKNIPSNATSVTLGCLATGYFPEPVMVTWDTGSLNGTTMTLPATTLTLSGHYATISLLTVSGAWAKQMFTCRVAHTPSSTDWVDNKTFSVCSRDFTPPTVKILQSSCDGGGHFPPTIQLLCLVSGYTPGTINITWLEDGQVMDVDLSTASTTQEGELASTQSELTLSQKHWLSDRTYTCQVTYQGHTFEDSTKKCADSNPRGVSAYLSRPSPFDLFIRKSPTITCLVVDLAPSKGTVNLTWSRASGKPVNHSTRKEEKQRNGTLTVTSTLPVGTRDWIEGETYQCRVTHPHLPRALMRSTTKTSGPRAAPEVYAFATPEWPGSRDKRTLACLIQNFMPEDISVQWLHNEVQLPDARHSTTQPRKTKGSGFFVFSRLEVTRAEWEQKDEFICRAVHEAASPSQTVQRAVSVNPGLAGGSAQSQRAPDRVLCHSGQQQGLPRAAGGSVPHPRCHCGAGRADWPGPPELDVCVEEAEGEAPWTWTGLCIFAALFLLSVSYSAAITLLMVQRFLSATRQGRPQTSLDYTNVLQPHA
In assay [5] the target is human IgE (affinity purified from U266B1 myeloma culture supernatant) (human) (UniProt P01854). As to the kind of experiment: equilibrium binding of 125I-IgE, Scatchard analysis.
human IgE (affinity purified from U266B1 myeloma culture supernatant) (human), sequence (P01854 whole entry, form in doubt, one chain of several): as the sequence (P01854 whole entry, one chain of several) above
The target is the same in assay [6]. As to the kind of experiment: soluble receptor assay: inhibition of biotin-IgE binding to plate-coated FcεRI α-chain IgG chimera.
Assay [7] shares this target. Described as above. This is another data set of the same source.

human IgE bound to FcεRI (IgE-loaded FcεRI α-chain on CHO 3D10 cells) (human), sequence (P01854 whole entry, chain 1 of 2): as the sequence (P01854 whole entry, one chain of several) above
human IgE bound to FcεRI (IgE-loaded FcεRI α-chain on CHO 3D10 cells) (human), sequence (P12319 26-257, chain 2 of 2, further chain): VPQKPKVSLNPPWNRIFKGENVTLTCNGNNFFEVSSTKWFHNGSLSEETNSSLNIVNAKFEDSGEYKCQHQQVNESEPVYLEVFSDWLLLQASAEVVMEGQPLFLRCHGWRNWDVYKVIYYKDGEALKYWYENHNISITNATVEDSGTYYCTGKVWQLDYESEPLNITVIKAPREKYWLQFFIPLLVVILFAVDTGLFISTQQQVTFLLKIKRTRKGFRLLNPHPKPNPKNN

MOPC21 (antibody) had a mean channel fluorescence at 0.1 µg/ml (mean channel fluorescence) in assay [1] of 7.3. Besides, the nonspecific background binding in assay [2] is 10%.

B1: MaE11 (antibody, mouse IgG1, V domains shown)
VH: DVQLQESGPGLVKPSQSLSLACSVTGYSITSGYSWNWIRQFPGNKLEWMGSITYDGSSNYNPSLKNRISVTRDTSQNQFFLKLNSATAEDTATYYCARGSHYFGHWHFAVWGAGTTVTVSS
VL: DIQLTQSPASLAVSLGQRATISCKASQSVDYDGDSYMNWYQQKPGQPPILLIYAASYLGSEIPARFSGSGSGTDFTLNIHPVEEEDAATFYCQQSHEDPYTFGAGTKLEIK
In assay [3], B1 came in with a PBL histamine release (EC50), IgE-loaded peripheral blood basophils of more than 100 µg/mL. Besides, the EC50 – broadly, the concentration giving half of the maximal effect – in assay [4] came to 0.15 µg/mL. The molecule further showed a mean channel fluorescence at 0.1 µg/ml (mean channel fluorescence) in assay [1] of 6.4. For the same molecule, in assay [5], the Kd – broadly, the free concentration of one partner at which half of the binding sites on the other are occupied at equilibrium, for simple one-to-one binding – was 30 nM. In assay [6], the IC50 – broadly, the concentration that inhibits the measured activity by half – amounted to 0.179 µg/mL; the ratio F(ab)-X/F(ab)-2 worked out at 0.03; the ratio F(ab)-X/MaE11 is 1. Also, in assay [7], the 50% inhibitory concentration (IC50) is 0.449 µg/mL, the ratio Variant X/IgG1-2 was found to be 0.06 and the ratio Variant X/MaE11 was determined as 1.
